Test results: paper PMC8153730 (Science Advances, 2021)

B1: recombinant glutathione S-transferase (GST) SETD6 (enzyme)
chain: MATQAKRPRVAGPVDGGDLDPVACFLSWCRRVGLELSPKVSERAGGRRTRGGARAALTSPPAQVAVSRQGTVAGYGMVARESVQAGELLFVVPRAALLSQHTCSIGGLLERERVALQSQSGWVPLLLALLHELQAPASRWRPYFALWPELGRLEHPMFWPEEERRCLLQGTGVPEAVEKDLANIRSEYQSIVLPFMEAHPDLFSLRVRSLELYHQLVALVMAYSFQEPLEEEEDEKEPNSPVMVPAADILNHLANHNANLEYSANCLRMVATQPIPKGHEIFNTYGQMANWQLIHMYGFVEPYPDNTDDTADIQMVTVREAALQGTKTEAERHLVYERWDFLCKLEMVGEEGAFVIGREEVLTEEELTTTLKVLCMPAEEFRELKDQDGGGDDKREEGSLTITNIPKLKASWRQLLQNSVLLTLQTYATDLKTDQGLLSNKEVYAKLSWREQQALQVRYGQKMILHQLLELTS
B2: His E2F1 (natural protein)
chain: not shown

Columns and labels:
[1] = molecular target: recombinant His BRD4 (1-477aa) (UniProt O60885 1-477); test: ELISA
[2] = molecular target: His-Sumo BRD4 (1-477aa) wild type, not methylated (UniProt O60885 1-477); test: ELISA

Row | Binder | binding result [1] | binding result [2]
1 | B1 | binds | –
2 | B2 | – | binds
